This note sets out measurements from patent US20260167959A1, “APTAZYME-BASED REGULATABLE GENE EXPRESSION SYSTEMS” (REJUVENATE BIO INC, priority 2022, published 2026).

Substitutions are numbered along the chain they refer to.

The labels stand for the following.
B1: RA079 (nucleic acid)
DNA: GCGCGTCCTGGATTCGCGGAAACGCGTACATCCAGCGAGAATACCAGCATCGTCTTGATGCCCTTGGAAGTCTCGCTGACGAGTCCCAAATAGGACGAAACGCGC
modifications: expressed or natural sequence
B2: RA087 (nucleic acid)
DNA: GCGCGTCCTGGATTCGCGGAAACGCGTACATCCAGCTGACGAGCGAGAATACCAGCATCGTCTTGATGCCCTTGGAAGTCTCGTCCCAAATAGGACGAAACGCGC
modifications: expressed or natural sequence
B3: RA072 (nucleic acid)
DNA: GCGCGTCCTGGATTCGCGGAAACGCGTACCGAGAATACCAGCATCGTCTTGATGCCCTTGGAAGTCTCGATCCAGCTGACGAGTCCCAAATAGGACGAAACGCGC
modifications: expressed or natural sequence
B4: RA075 (nucleic acid)
DNA: GCGCGTCCTGGATTCGCGGAAACGCGTACATCCAGCTGACGAGTCCCAAATAGGACGAAAGTGATACCAGCATCGTCTTGATGCCCTTGGCAGCACTACGCGC
modifications: expressed or natural sequence
B5: RA085 (nucleic acid)
DNA: GCGCGTCCTGGATTCGCGGAAACGCGTACATCCAGAATACCAGCATCGTCTTGATGCCCTTGGAAGTCTAGCTGACGAGTCCCAAATAGGACGAAACGCGC
modifications: expressed or natural sequence
B6: RA084 (nucleic acid)
DNA: GCGCGTCCTGGAGAGAATACCAGCATCGTCTTGATGCCCTTGGAAGTCTCTTCGCGGAAACGCGTACATCCAGCTGACGAGTCCCAAATAGGACGAAACGCGC
modifications: expressed or natural sequence
B7: RA090 (nucleic acid)
DNA: B6 DNA with G13A, A14G, G15T, A16G, A44C, T47C, C48A, T49C, C50T
modifications: expressed or natural sequence
B8: RA070 (nucleic acid)
DNA: GCGCGTCCTGGATTCGCGGAAACGCGTACATCCAGCTGAGTGATACCAGCATCGTCTTGATGCCCTTGGCAGCACTACGAGTCCCAAATAGGACGAAACGCGC
modifications: expressed or natural sequence
B9: RA068 (nucleic acid)
DNA: GCGCGTCCTGGATTCGCCCGGAATACCAGCATCGTCTTGATGCCCTTGGAAGTCCGGGGAAACGCGTACATCCAGCTGACGAGTCCCAAATAGGACGAAACGCGC
modifications: expressed or natural sequence
B10: RA080 (nucleic acid)
DNA: GCGCGTCCTGGATTCGGAGAATACCAGCATCGTCTTGATGCCCTTGGAAGTCTCCGGAAACGCGTACATCCAGCTGACGAGTCCCAAATAGGACGAAACGCGC
modifications: expressed or natural sequence
B11: RA077 (nucleic acid)
DNA: GCGCGTCCAGTGATACCAGCATCGTCTTGATGCCCTTGGCAGCACTTGGATTCGCGGAAACGCGTACATCCAGCTGACGAGTCCCAAATAGGACGAAACGCGC
modifications: expressed or natural sequence
B12: RA074 (nucleic acid)
DNA: GCGCGTCCTGGATTCGCGGAAACGCGTACATCCAGCTGACGAGTCAGAATACCAGCATCGTCTTGATGCCCTTGGAAGTCTCCAAATAGGACGAAACGCGC
modifications: expressed or natural sequence
B13: RA081 (nucleic acid)
DNA: GCGCGTCCTGGATTCGCGGAAACGCGTACATCCAGCTGACGAGTCCCAAGGAATACCAGCATCGTCTTGATGCCCTTGGAAGTCCATAGGACGAAACGCGC
modifications: expressed or natural sequence
B14: RA088 (nucleic acid)
DNA: GCGCGTCCTGGATTCGCGGAAACGCGTACATCCCGAGAATACCAGCATCGTCTTGATGCCCTTGGAAGTCTCGAGCTGACGAGTCCCAAATAGGACGAAACGCGC
modifications: expressed or natural sequence
B15: RA008 (nucleic acid)
DNA: GCGCGTCCTGGATTCGCGGAAACGGAATACCAGCATCGTCTTGATGCCCTTGGAAGTCCGCGCGTACATCCAGCTGACGAGTCCCAAATAGGACGAAACGCGC
modifications: expressed or natural sequence
B16: RA007 (nucleic acid)
DNA: GCGCGTCCTGGATTCGCGGAAACGCGTACATCCAGCTGACGAGTCCCAAATAGGACGAAACGCGAGAATACCAGCATCGTCTTGATGCCCTTGGAAGTCTCGCGC
modifications: expressed or natural sequence
B17: RA091 (nucleic acid)
DNA: GGAATACCAGCATCGTCTTGATGCCCTTGGAAGTCCGCGCGTCCTGGATTCGCGGAAACGCGTACATCCAGCTGACGAGTCCCAAATAGGACGAAACGCGC
modifications: expressed or natural sequence
B18: RA092 (nucleic acid)
DNA: GCGCGTCCTGGATTCGCGGAAACGCGTACATCCAGCTGACGAGTCCCAAATAGGACCGGAATACCAGCATCGTCTTGATGCCCTTGGAAGTCCGGCGAAACGCGC
modifications: expressed or natural sequence
B19: RA083 (nucleic acid)
DNA: GCGCGTCCGGAATACCAGCATCGTCTTGATGCCCTTGGAAGTCCTGGATTCGCGGAAACGCGTACATCCAGCTGACGAGTCCCAAATAGGACGAAACGCGC
modifications: expressed or natural sequence
B20: RA073 (nucleic acid)
DNA: GCGCGTCCTGGATTCGCGGAAACGCGTACACGGAATACCAGCATCGTCTTGATGCCCTTGGAAGTCCGTCCAGCTGACGAGTCCCAAATAGGACGAAACGCGC
modifications: expressed or natural sequence
B21: RA071 (nucleic acid)
DNA: GCGCGTCCTGGATTCGCGGAAACGCGTACATCCAGCTGACGAGTCCCAAATAGGACGAAACGCGGAATACCAGCATCGTCTTGATGCCCTTGGAAGTCCGCGC
modifications: expressed or natural sequence
B22: RA078 (nucleic acid)
DNA: GCGCGTCCTGGATTCGCGGAAACGCGTACATCCAGCTGACGAGTCCCAAATAGGACGAAACGCCGAGAATACCAGCATCGTCTTGATGCCCTTGGAAGTCTCGGC
modifications: expressed or natural sequence
B23: RA069 (nucleic acid)
DNA: GCGCGTCCTGGATTCGCGGAAACGCGTACATCCAGCTGACGAGTCCCGGAATACCAGCATCGTCTTGATGCCCTTGGAAGTCCAAATAGGACGAAACGCGC
modifications: expressed or natural sequence
B24: RA089 (nucleic acid)
DNA: GCGCGTCCTGGATTCGCGGAAACGCGTACATCCAGCTGACGAGTCCCAAATAGGACCGGAATACCAGCATCGTCTTGATGCCCTTGGAAGTCCGGAAACGCGC
modifications: expressed or natural sequence
B25: RA086 (nucleic acid)
DNA: GCGCGTCCTGGATTCGCGGAAACGCGGAATACCAGCATCGTCTTGATGCCCTTGGAAGTCCGCGTACATCCAGCTGACGAGTCCCAAATAGGACGAAACGCGC
modifications: expressed or natural sequence
B26: RA082 (nucleic acid)
DNA: GCGCGTCCTGGATTCGAGAATACCAGCATCGTCTTGATGCCCTTGGAAGTCTCGGAAACGCGTACATCCAGCTGACGAGTCCCAAATAGGACGAAACGCGC
modifications: expressed or natural sequence
B27: RA076 (nucleic acid)
DNA: GCGCGTCCTGGATTCGCGGGAGAATACCAGCATCGTCTTGATGCCCTTGGAAGTCTCAAACGCGTACATCCAGCTGACGAGTCCCAAATAGGACGAAACGCGC
modifications: expressed or natural sequence

The data set concerns Renilla luciferase RNA. Description: Barcoded aptazyme variant library screen: un-cleaved Renilla luciferase RNA by barcode read counts, HEK293-T cells. It counts as cell-based. Particulars: un-cleaved Renilla luciferase RNA, HEK293-T cells cultured with 1 mM theophylline (ON) over without theophylline (OFF); barcode read counts, triplicate. The procedure, abridged: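 Aptazyme variants (seven theophylline aptamers inserted after each T3H48 ribozyme nucleotide, 9-nt barcoded) cloned into the 3′ UTR of Renilla luciferase in psiCHECK-2; cells cultured ± theophylline, in triplicate. RNA and DNA barcodes amplified and sequenced; normalized read counts gave un-cleaved RNA fraction and ON/OFF fold-change.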
Regarding B1, the “Fold change in RNA expression between the ON state and the OFF state” value (shortened to “Fold change”) worked out at 1.8 fold.
Turning to B2, the “Fold change” value amounted to 1.7 fold.
For the molecule B3, the “Fold change” value is 1.8 fold.
As for B4, the figure is 1.8 fold; as for B5, 1.7 fold; as for B6, 1.7 fold.
Take B7: the “Fold change” value came to 1.7 fold.
As for B8, the figure is 1.8 fold; as for B9, 1.8 fold; as for B10, 1.7 fold.
Consider B11, for which the “Fold change” value is reported as 1.8 fold.
As for B12, the figure is 1.8 fold; as for B13, 1.7 fold.
For the molecule B14, the “Fold change” value turned out to be 1.7 fold.
With B15, the “Fold change” value is given as 4.2 fold.
For the molecule B16, the “Fold change” value is reported as 4.5 fold.
B17: the “Fold change” value was found to be 1.6 fold.
For B18, the “Fold change” value came to 1.6 fold.
For B19, the “Fold change” value was found to be 1.7 fold.
Consider B20, for which the “Fold change” value is reported as 1.8 fold.
Take B21: the “Fold change” value stood at 1.8 fold.
Next, B22: 1.8 fold; B23: 1.8 fold.
B24: the “Fold change” value worked out at 1.7 fold.
Take B25: the “Fold change” value came out at 1.7 fold.
As to B26, the “Fold change” value amounted to 1.7 fold.
Next, B27: 1.8 fold.
